{"source": "paper PMC8460140", "about": "“Identification of BiP as a CB1 Receptor-Interacting Protein That Fine-Tunes Cannabinoid Signaling in the Mouse Brain” (The Journal of Neuroscience, 2021)", "binders": {"B1": {"name": "His6-tagged CB1R-CTD (amino acids 400-472), labeled with 5-IAF (domain or fragment, UniProt P21554 400-472, looked up)", "chain": "RSKDLRHAFRSMFPSCEGTAQPLDNSMGDSDCLHKHANNAASVHRAAESCIKSTVKIAKVTMSVSTDTSAEAL", "modifications": "labeled with 5-(iodoacetamido)fluorescein (5-IAF); labeled residue not stated", "notes": "pBH4 vector; also called 5-IAF-CB1R-CTD; 5-IAF-labeled CB1R-CTD"}}, "target": "T1, His6-tagged BiP-IR (amino acids 497-654), recombinant (UniProt P11021 497-654)", "T1 construct": "BiP (GRP78, Hspa5), amino acids 497-654; pBH4 vector; also called unlabeled BiP-IR", "T1 sequence (looked up)": "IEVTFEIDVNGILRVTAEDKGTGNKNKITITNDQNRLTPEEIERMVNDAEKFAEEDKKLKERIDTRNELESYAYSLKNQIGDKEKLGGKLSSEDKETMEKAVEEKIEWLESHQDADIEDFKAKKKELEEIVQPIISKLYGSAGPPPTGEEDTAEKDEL", "assay": "fluorescence polarisation; saturation binding: constant 100 nM 5-IAF-CB1R-CTD, increasing amounts of unlabeled BiP or BiP-IR", "settings": "both partners purified"}
{"binder": "B1", "values": [{"measurement": "binding result", "value": "binds"}]}
